± gives the uncertainty stated by the source.

The source of these data is the Human Domainome abundance scans (Beltran et al. 2025).

The data set can be described thus: abundance fitness (aPCA) (normalised: wild type 0, dead -1); higher = more abundant; growth selection in yeast, the domain comes from the species named. As to conditions: Homo sapiens.
Substance “SAFB-like transcription modulator D40G, Q9NWH9” gave an abundance fitness of -0.277 ± 0.069.

In the case of “SAFB-like transcription modulator D40H, Q9NWH9”, the abundance fitness was -0.614 ± 0.24.

In turn, “SAFB-like transcription modulator D40I, Q9NWH9” returned an abundance fitness of -0.357 ± 0.092.

On to “SAFB-like transcription modulator D40K, Q9NWH9”, for which the abundance fitness was -0.322 ± 0.099.

The substance “SAFB-like transcription modulator D40L, Q9NWH9” displayed an abundance fitness of -0.35 ± 0.066.

On to “SAFB-like transcription modulator D40M, Q9NWH9”, for which the abundance fitness was -0.377 ± 0.067.

“SAFB-like transcription modulator D40Q, Q9NWH9” had an abundance fitness of -0.486 ± 0.12.

Regarding “SAFB-like transcription modulator D40R, Q9NWH9”, the abundance fitness was -0.354 ± 0.066.

Substance “SAFB-like transcription modulator D40S, Q9NWH9” returned an abundance fitness of -0.148 ± 0.062.

“SAFB-like transcription modulator D40T, Q9NWH9”: the abundance fitness was -0.375 ± 0.049.

“SAFB-like transcription modulator D40V, Q9NWH9”: the abundance fitness is -0.417 ± 0.072.

“SAFB-like transcription modulator D62A, Q9NWH9”: the abundance fitness was -0.386 ± 0.045.

For the substance “SAFB-like transcription modulator D62C, Q9NWH9”, the abundance fitness is -0.198 ± 0.045.

On to “SAFB-like transcription modulator D62E, Q9NWH9”, for which the abundance fitness is -0.397 ± 0.047.

As to “SAFB-like transcription modulator D62F, Q9NWH9”, the abundance fitness was -0.526 ± 0.073.

On to “SAFB-like transcription modulator D62G, Q9NWH9”, for which the abundance fitness is -0.534 ± 0.054.

In turn, “SAFB-like transcription modulator D62H, Q9NWH9” displayed an abundance fitness of -0.253 ± 0.077.

Turning to “SAFB-like transcription modulator D62I, Q9NWH9”, the abundance fitness is -0.339 ± 0.049.

In turn, “SAFB-like transcription modulator D62K, Q9NWH9” yielded an abundance fitness of -0.531 ± 0.062.

On to “SAFB-like transcription modulator D62L, Q9NWH9”, for which the abundance fitness was -0.46 ± 0.047.

“SAFB-like transcription modulator D62M, Q9NWH9” yielded an abundance fitness of -0.69 ± 0.081.

On to “SAFB-like transcription modulator D62N, Q9NWH9”, for which the abundance fitness is -0.089 ± 0.05.

As to “SAFB-like transcription modulator D62P, Q9NWH9”, the abundance fitness was -0.474 ± 0.076.

Take “SAFB-like transcription modulator D62Q, Q9NWH9”: the abundance fitness was -0.334 ± 0.079.

Substance “SAFB-like transcription modulator D62R, Q9NWH9” returned an abundance fitness of -0.331 ± 0.052.

As to “SAFB-like transcription modulator D62S, Q9NWH9”, the abundance fitness is -0.191 ± 0.046.

For “SAFB-like transcription modulator D62T, Q9NWH9”, the abundance fitness was -0.212 ± 0.066.

Turning to “SAFB-like transcription modulator D62V, Q9NWH9”, the abundance fitness was -0.397 ± 0.039.

“SAFB-like transcription modulator D62W, Q9NWH9” showed an abundance fitness of -0.66 ± 0.045.

“SAFB-like transcription modulator D62Y, Q9NWH9” came in with an abundance fitness of -0.46 ± 0.064.

Take “SAFB-like transcription modulator D64A, Q9NWH9”: the abundance fitness was -0.12 ± 0.04.

“SAFB-like transcription modulator D64C, Q9NWH9” returned an abundance fitness of -0.166 ± 0.05.

Substance “SAFB-like transcription modulator D64E, Q9NWH9” showed an abundance fitness of -0.038 ± 0.034.

In turn, “SAFB-like transcription modulator D64F, Q9NWH9” yielded an abundance fitness of -0.144 ± 0.048.

“SAFB-like transcription modulator D64G, Q9NWH9” returned an abundance fitness of -0.09 ± 0.041.

As to “SAFB-like transcription modulator D64H, Q9NWH9”, the abundance fitness was -0.124 ± 0.058.

“SAFB-like transcription modulator D64I, Q9NWH9” had an abundance fitness of -0.28 ± 0.072.

“SAFB-like transcription modulator D64K, Q9NWH9”: the abundance fitness was -0.171 ± 0.058.

As to “SAFB-like transcription modulator D64M, Q9NWH9”, the abundance fitness is -0.016 ± 0.04.

For “SAFB-like transcription modulator D64N, Q9NWH9”, the abundance fitness amounted to 0.035 ± 0.037.

“SAFB-like transcription modulator D64P, Q9NWH9” had an abundance fitness of -0.519 ± 0.039.

As for “SAFB-like transcription modulator D64R, Q9NWH9”, the abundance fitness was -0.23 ± 0.032.

Consider “SAFB-like transcription modulator D64S, Q9NWH9”, for which the abundance fitness is -0.113 ± 0.035.

The substance “SAFB-like transcription modulator D64T, Q9NWH9” registered an abundance fitness of -0.076 ± 0.04.

For the substance “SAFB-like transcription modulator D64V, Q9NWH9”, the abundance fitness was -0.317 ± 0.045.

For “SAFB-like transcription modulator D64W, Q9NWH9”, the abundance fitness was -0.068 ± 0.046.

“SAFB-like transcription modulator E33A, Q9NWH9” came in with an abundance fitness of -0.455 ± 0.068.

For “SAFB-like transcription modulator E33C, Q9NWH9”, the abundance fitness was -0.68 ± 0.1.

“SAFB-like transcription modulator E33D, Q9NWH9” gave an abundance fitness of -0.916 ± 0.16.

“SAFB-like transcription modulator E33F, Q9NWH9” returned an abundance fitness of -0.645 ± 0.049.

On to “SAFB-like transcription modulator E33G, Q9NWH9”, for which the abundance fitness is -0.974 ± 0.086.

Consider “SAFB-like transcription modulator E33H, Q9NWH9”, for which the abundance fitness is -0.512 ± 0.13.

“SAFB-like transcription modulator E33K, Q9NWH9”: the abundance fitness was -0.89 ± 0.18.

With “SAFB-like transcription modulator E33L, Q9NWH9”, the abundance fitness is -0.123 ± 0.061.

For the substance “SAFB-like transcription modulator E33M, Q9NWH9”, the abundance fitness was -0.007 ± 0.083.

Substance “SAFB-like transcription modulator E33N, Q9NWH9” displayed an abundance fitness of -0.755 ± 0.1.

For the substance “SAFB-like transcription modulator E33P, Q9NWH9”, the abundance fitness is -1.16 ± 0.2.

“SAFB-like transcription modulator E33Q, Q9NWH9” came in with an abundance fitness of -0.111 ± 0.079.

The substance “SAFB-like transcription modulator E33R, Q9NWH9” registered an abundance fitness of -0.961 ± 0.077.

Regarding “SAFB-like transcription modulator E33S, Q9NWH9”, the abundance fitness was -0.353 ± 0.078.

Substance “SAFB-like transcription modulator E33T, Q9NWH9” registered an abundance fitness of -1.08 ± 0.17.

Substance “SAFB-like transcription modulator E33V, Q9NWH9” came in with an abundance fitness of -0.917 ± 0.094.

Substance “SAFB-like transcription modulator E33W, Q9NWH9” came in with an abundance fitness of -0.871 ± 0.1.

In turn, “SAFB-like transcription modulator E57A, Q9NWH9” showed an abundance fitness of -0.085 ± 0.082.

“SAFB-like transcription modulator E57C, Q9NWH9”: the abundance fitness was -0.192 ± 0.096.

Take “SAFB-like transcription modulator E57D, Q9NWH9”: the abundance fitness was -0.164 ± 0.086.

Substance “SAFB-like transcription modulator E57G, Q9NWH9” gave an abundance fitness of -0.204 ± 0.044.

“SAFB-like transcription modulator E57H, Q9NWH9” came in with an abundance fitness of 0.063 ± 0.16.

For “SAFB-like transcription modulator E57I, Q9NWH9”, the abundance fitness is 0.048 ± 0.39.

Substance “SAFB-like transcription modulator E57K, Q9NWH9” gave an abundance fitness of -0.159 ± 0.11.

Consider “SAFB-like transcription modulator E57L, Q9NWH9”, for which the abundance fitness is -0.049 ± 0.071.

Substance “SAFB-like transcription modulator E57M, Q9NWH9” returned an abundance fitness of -0.164 ± 0.094.

For “SAFB-like transcription modulator E57Q, Q9NWH9”, the abundance fitness is -0.667 ± 0.25.

“SAFB-like transcription modulator E57R, Q9NWH9” displayed an abundance fitness of 0.034 ± 0.06.

In turn, “SAFB-like transcription modulator E57S, Q9NWH9” yielded an abundance fitness of -0.031 ± 0.056.

In turn, “SAFB-like transcription modulator E57T, Q9NWH9” showed an abundance fitness of -0.122 ± 0.079.

Take “SAFB-like transcription modulator E57V, Q9NWH9”: the abundance fitness was -0.064 ± 0.063.

Consider “SAFB-like transcription modulator E57W, Q9NWH9”, for which the abundance fitness is -0.124 ± 0.059.

As for “SAFB-like transcription modulator E57Y, Q9NWH9”, the abundance fitness is -0.319 ± 0.11.

“SAFB-like transcription modulator E58A, Q9NWH9” showed an abundance fitness of -0.026 ± 0.06.

With “SAFB-like transcription modulator E58C, Q9NWH9”, the abundance fitness is -0.113 ± 0.064.

“SAFB-like transcription modulator E58D, Q9NWH9” yielded an abundance fitness of -0.444 ± 0.15.

“SAFB-like transcription modulator E58F, Q9NWH9”: the abundance fitness was -0.105 ± 0.054.

Turning to “SAFB-like transcription modulator E58G, Q9NWH9”, the abundance fitness was -0.021 ± 0.051.

Turning to “SAFB-like transcription modulator E58H, Q9NWH9”, the abundance fitness is 0.147 ± 0.084.

In turn, “SAFB-like transcription modulator E58K, Q9NWH9” yielded an abundance fitness of -0.134 ± 0.084.

“SAFB-like transcription modulator E58L, Q9NWH9” came in with an abundance fitness of -0.036 ± 0.036.

As to “SAFB-like transcription modulator E58M, Q9NWH9”, the abundance fitness was found to be 0.008 ± 0.071.

Substance “SAFB-like transcription modulator E58N, Q9NWH9” showed an abundance fitness of -0.068 ± 0.077.

As to “SAFB-like transcription modulator E58P, Q9NWH9”, the abundance fitness was -0.867 ± 0.12.

As for “SAFB-like transcription modulator E58Q, Q9NWH9”, the abundance fitness is -0.014 ± 0.077.
